FireProtDB (doi:10.1016/s0167-4838(98)00243-x)

Conditions: Streptomyces sp. (strain N174), pH 7, Thermal, sodium phosphate 50 mM, whole UniProt chain shown
[1] = CD, transition: 3, reversible: yes(85%)
[2] = Fluorescence, reversible: yes(75%)

B1: Chitosanase wild type, P33665 (protein)
chain: MHSQHRTARIALAVVLTAIPASLATAGVGYASTQASTAVKAGAGLDDPHKKEIAMELVSSAENSSLDWKAQYKYIEDIGDGRGYTGGIIGFCSGTGDMLELVQHYTDLEPGNILAKYLPALKKVNGSASHSGLGTPFTKDWATAAKDTVFQQAQNDERDRVYFDPAVSQAKADGLRALGQFAYYDAIVMHGPGNDPTSFGGIRKTAMKKARTPAQGGDETTYLNAFLDARKAAMLTEAAHDDTSRVDTEQRVFLKAGNLDLNPPLKWKTYGDPYVINS
Q: Which Tm [1] does the source give for B1 here?
A: 42.7 °C

Q: And the “unfolding enthalpy (van 't Hoff)” value [1]?
A: 120 kcal/mol

Q: And the Tm [2]?
A: 43.2 °C

Q: And the “unfolding enthalpy (van 't Hoff)” value [2]?
A: 161 kcal/mol
